From patent publication US20170101454A1 (Novo Nordisk, published 2017)
Starred links: 1 amine or outer side, 2 acyl side, 3 side chain; linkers in the order of their positions; H or OH if unused. Non-standard residues stand in square brackets, D forms with d. Groups on a side chain read outwards from the residue. No end group written: not given here. *: point of attachment. C18 diacid = O=C(O)CCCCCCCCCCCCCCCCC(=O)*; γGlu = O=C(O)[C@H](CCC(=O)[*:2])N[*:1]; Ac4c = NC1(C(=O)O)CCC1; AEEA = NCCOCCOCC(=O)O; Aib = CC(C)(N)C(=O)O

B1: N^ε28-[(4S)-4-carboxy-4-[[2-[2-[2-[[2-[2-[2-[[(4S)-4-carboxy-4-[[(4S)-4-carboxy-4-(17-carboxyheptadecanoylamino)butanoyl]amino]butanoyl]amino]ethoxy]ethoxy]acet … (peptide)
peptide: H[Ac4c]QGTFTSDLSKYLESRRAQEFVQWLIK([γGlu-AEEA-AEEA-γGlu-γGlu-C18 diacid])T-NH2
modifications: N-terminus assumed
SMILES: CC[C@H](C)[C@H](NC(=O)[C@H](CC(C)C)NC(=O)[C@H](Cc1c[nH]c2ccccc12)NC(=O)[C@H](CCC(N)=O)NC(=O)[C@@H](NC(=O)[C@H](Cc1ccccc1)NC(=O)[C@H](CCC(=O)O)NC(=O)[C@H](CCC(N)=O)NC(=O)[C@H](C)NC(=O)[C@H](CCCNC(=N)N)NC(=O)[C@H](CCCNC(=N)N)NC(=O)[C@H](CO)NC(=O)[C@H](CCC(=O)O)NC(=O)[C@H](CC(C)C)NC(=O)[C@H](Cc1ccc(O)cc1)NC(=O)[C@H](CCCCN)NC(=O)[C@H](CO)NC(=O)[C@H](CC(C)C)NC(=O)[C@H](CC(=O)O)NC(=O)[C@H](CO)NC(=O)[C@@H](NC(=O)[C@H](Cc1ccccc1)NC(=O)[C@@H](NC(=O)CNC(=O)[C@H](CCC(N)=O)NC(=O)C1(NC(=O)[C@@H](N)Cc2c[nH]cn2)CCC1)[C@@H](C)O)[C@@H](C)O)C(C)C)C(=O)N[C@@H](CCCCNC(=O)CC[C@H](NC(=O)COCCOCCNC(=O)COCCOCCNC(=O)CC[C@H](NC(=O)CC[C@H](NC(=O)CCCCCCCCCCCCCCCCC(=O)O)C(=O)O)C(=O)O)C(=O)O)C(=O)N[C@H](C(N)=O)[C@@H](C)O
notes: also called Chem. 38; Chem 38
B2: N^ε28-[(4S)-4-carboxy-4-[[2-[2-[2-[[(4S)-4-carboxy-4-[[2-[2-[2-[[(4S)-4-carboxy-4-[[2-[2-[2-[[(4S)-4-carboxy-4-[[(4S)-4-carboxy-4-(17-carboxyheptadecanoylamino) … (peptide)
peptide: HXQGTFTSDYSRYLESRRARDFVQWLIKT
modifications: Acb at position 2; epsilon-N of Lys28 acylated with the substituent given in the name (17-carboxyheptadecanoyl-2xgGlu-Ado-gGlu-Ado-gGlu-Ado-gGlu-); C-terminal amide
notes: also called Chem. 36; Chem 36
B3: N^ε28-[(4S)-4-carboxy-4-[[(4S)-4-carboxy-4-[[2-[2-[2-[[2-[2-[2-[[(4S)-4-carboxy-4-(17-carboxyheptadecanoylamino)butanoyl]amino]ethoxy]ethoxy]acetyl]amino]ethoxy … (peptide)
peptide: H[Aib]QGTFTSDYSKYLDLRRARDFVAWLIK([γGlu-γGlu-AEEA-AEEA-γGlu-C18 diacid])T-NH2
modifications: N-terminus assumed
SMILES: CC[C@H](C)[C@H](NC(=O)[C@H](CC(C)C)NC(=O)[C@H](Cc1c[nH]c2ccccc12)NC(=O)[C@H](C)NC(=O)[C@@H](NC(=O)[C@H](Cc1ccccc1)NC(=O)[C@H](CC(=O)O)NC(=O)[C@H](CCCNC(=N)N)NC(=O)[C@H](C)NC(=O)[C@H](CCCNC(=N)N)NC(=O)[C@H](CCCNC(=N)N)NC(=O)[C@H](CC(C)C)NC(=O)[C@H](CC(=O)O)NC(=O)[C@H](CC(C)C)NC(=O)[C@H](Cc1ccc(O)cc1)NC(=O)[C@H](CCCCN)NC(=O)[C@H](CO)NC(=O)[C@H](Cc1ccc(O)cc1)NC(=O)[C@H](CC(=O)O)NC(=O)[C@H](CO)NC(=O)[C@@H](NC(=O)[C@H](Cc1ccccc1)NC(=O)[C@@H](NC(=O)CNC(=O)[C@H](CCC(N)=O)NC(=O)C(C)(C)NC(=O)[C@@H](N)Cc1c[nH]cn1)[C@@H](C)O)[C@@H](C)O)C(C)C)C(=O)N[C@@H](CCCCNC(=O)CC[C@H](NC(=O)CC[C@H](NC(=O)COCCOCCNC(=O)COCCOCCNC(=O)CC[C@H](NC(=O)CCCCCCCCCCCCCCCCC(=O)O)C(=O)O)C(=O)O)C(=O)O)C(=O)N[C@H](C(N)=O)[C@@H](C)O
notes: also called Chem. 33; Chem 33
B4: N^ε28-[(4S)-4-carboxy-4-[[(4S)-4-carboxy-4-[[2-[2-[2-[[2-[2-[2-[[(4S)-4-carboxy-4-(17-carboxyheptadecanoylamino)butanoyl]amino]ethoxy]ethoxy]acetyl]amino]ethoxy … (peptide)
peptide: H[Aib]QGTFTSDYSKYLDARRARDFVAWLIK([γGlu-γGlu-AEEA-AEEA-γGlu-C18 diacid])T-NH2
modifications: N-terminus assumed
SMILES: CC[C@H](C)[C@H](NC(=O)[C@H](CC(C)C)NC(=O)[C@H](Cc1c[nH]c2ccccc12)NC(=O)[C@H](C)NC(=O)[C@@H](NC(=O)[C@H](Cc1ccccc1)NC(=O)[C@H](CC(=O)O)NC(=O)[C@H](CCCNC(=N)N)NC(=O)[C@H](C)NC(=O)[C@H](CCCNC(=N)N)NC(=O)[C@H](CCCNC(=N)N)NC(=O)[C@H](C)NC(=O)[C@H](CC(=O)O)NC(=O)[C@H](CC(C)C)NC(=O)[C@H](Cc1ccc(O)cc1)NC(=O)[C@H](CCCCN)NC(=O)[C@H](CO)NC(=O)[C@H](Cc1ccc(O)cc1)NC(=O)[C@H](CC(=O)O)NC(=O)[C@H](CO)NC(=O)[C@@H](NC(=O)[C@H](Cc1ccccc1)NC(=O)[C@@H](NC(=O)CNC(=O)[C@H](CCC(N)=O)NC(=O)C(C)(C)NC(=O)[C@@H](N)Cc1c[nH]cn1)[C@@H](C)O)[C@@H](C)O)C(C)C)C(=O)N[C@@H](CCCCNC(=O)CC[C@H](NC(=O)CC[C@H](NC(=O)COCCOCCNC(=O)COCCOCCNC(=O)CC[C@H](NC(=O)CCCCCCCCCCCCCCCCC(=O)O)C(=O)O)C(=O)O)C(=O)O)C(=O)N[C@H](C(N)=O)[C@@H](C)O
notes: also called Chem. 32; Chem 32
B5: N^ε28-[(4S)-4-carboxy-4-[[2-[2-[2-[[(4S)-4-carboxy-4-[[2-[2-[2-[[(4S)-4-carboxy-4-[[2-[2-[2-[[(4S)-4-carboxy-4-[[(4S)-4-carboxy-4-(17-carboxyheptadecanoylamino) … (peptide)
peptide: HXQGTFTSDYSRYLESRRARDFVQWLIKT
modifications: Aib at position 2; epsilon-N of Lys28 acylated with the substituent given in the name (17-carboxyheptadecanoyl-2xgGlu-Ado-gGlu-Ado-gGlu-Ado-gGlu-); C-terminal amide
notes: also called Chem. 37; Chem 37
B6: N^ε28-[(4S)-4-carboxy-4-[[2-[2-[2-[[2-[2-[2-[[(4S)-4-carboxy-4-[[(4S)-4-carboxy-4-(17-carboxyheptadecanoylamino)butanoyl]amino]butanoyl]amino]ethoxy]ethoxy]acet … (peptide)
peptide: H[Aib]QGTFTSDLSKYLDVRRAQDFVQWLIK([γGlu-AEEA-AEEA-γGlu-γGlu-C18 diacid])T-NH2
modifications: N-terminus assumed
SMILES: CC[C@H](C)[C@H](NC(=O)[C@H](CC(C)C)NC(=O)[C@H](Cc1c[nH]c2ccccc12)NC(=O)[C@H](CCC(N)=O)NC(=O)[C@@H](NC(=O)[C@H](Cc1ccccc1)NC(=O)[C@H](CC(=O)O)NC(=O)[C@H](CCC(N)=O)NC(=O)[C@H](C)NC(=O)[C@H](CCCNC(=N)N)NC(=O)[C@H](CCCNC(=N)N)NC(=O)[C@@H](NC(=O)[C@H](CC(=O)O)NC(=O)[C@H](CC(C)C)NC(=O)[C@H](Cc1ccc(O)cc1)NC(=O)[C@H](CCCCN)NC(=O)[C@H](CO)NC(=O)[C@H](CC(C)C)NC(=O)[C@H](CC(=O)O)NC(=O)[C@H](CO)NC(=O)[C@@H](NC(=O)[C@H](Cc1ccccc1)NC(=O)[C@@H](NC(=O)CNC(=O)[C@H](CCC(N)=O)NC(=O)C(C)(C)NC(=O)[C@@H](N)Cc1c[nH]cn1)[C@@H](C)O)[C@@H](C)O)C(C)C)C(C)C)C(=O)N[C@@H](CCCCNC(=O)CC[C@H](NC(=O)COCCOCCNC(=O)COCCOCCNC(=O)CC[C@H](NC(=O)CC[C@H](NC(=O)CCCCCCCCCCCCCCCCC(=O)O)C(=O)O)C(=O)O)C(=O)O)C(=O)N[C@H](C(N)=O)[C@@H](C)O
notes: also called Chem. 40; Chem 40
B7: N^ε28-[(4S)-4-carboxy-4-[[2-[2-[2-[[2-[2-[2-[[(4S)-4-carboxy-4-[[(4S)-4-carboxy-4-(17-carboxyheptadecanoylamino)butanoyl]amino]butanoyl]amino]ethoxy]ethoxy]acet … (peptide)
peptide: H[Aib]QGTFTSDVSKYLDARRAQDFVQWLIK([γGlu-AEEA-AEEA-γGlu-γGlu-C18 diacid])T-NH2
modifications: N-terminus assumed
SMILES: CC[C@H](C)[C@H](NC(=O)[C@H](CC(C)C)NC(=O)[C@H](Cc1c[nH]c2ccccc12)NC(=O)[C@H](CCC(N)=O)NC(=O)[C@@H](NC(=O)[C@H](Cc1ccccc1)NC(=O)[C@H](CC(=O)O)NC(=O)[C@H](CCC(N)=O)NC(=O)[C@H](C)NC(=O)[C@H](CCCNC(=N)N)NC(=O)[C@H](CCCNC(=N)N)NC(=O)[C@H](C)NC(=O)[C@H](CC(=O)O)NC(=O)[C@H](CC(C)C)NC(=O)[C@H](Cc1ccc(O)cc1)NC(=O)[C@H](CCCCN)NC(=O)[C@H](CO)NC(=O)[C@@H](NC(=O)[C@H](CC(=O)O)NC(=O)[C@H](CO)NC(=O)[C@@H](NC(=O)[C@H](Cc1ccccc1)NC(=O)[C@@H](NC(=O)CNC(=O)[C@H](CCC(N)=O)NC(=O)C(C)(C)NC(=O)[C@@H](N)Cc1c[nH]cn1)[C@@H](C)O)[C@@H](C)O)C(C)C)C(C)C)C(=O)N[C@@H](CCCCNC(=O)CC[C@H](NC(=O)COCCOCCNC(=O)COCCOCCNC(=O)CC[C@H](NC(=O)CC[C@H](NC(=O)CCCCCCCCCCCCCCCCC(=O)O)C(=O)O)C(=O)O)C(=O)O)C(=O)N[C@H](C(N)=O)[C@@H](C)O
notes: also called Chem. 39; Chem 39
B8: N^ε28-[(4S)-4-carboxy-4-[[(4S)-4-carboxy-4-[[2-[2-[2-[[2-[2-[2-[[(4S)-4-carboxy-4-(17-carboxyheptadecanoylamino)butanoyl]amino]ethoxy]ethoxy]acetyl]amino]ethoxy … (peptide)
peptide: H[Aib]QGTFTSDYSKYLESRRAQDFVAWLIK([γGlu-γGlu-AEEA-AEEA-γGlu-C18 diacid])T-NH2
modifications: N-terminus assumed
SMILES: CC[C@H](C)[C@H](NC(=O)[C@H](CC(C)C)NC(=O)[C@H](Cc1c[nH]c2ccccc12)NC(=O)[C@H](C)NC(=O)[C@@H](NC(=O)[C@H](Cc1ccccc1)NC(=O)[C@H](CC(=O)O)NC(=O)[C@H](CCC(N)=O)NC(=O)[C@H](C)NC(=O)[C@H](CCCNC(=N)N)NC(=O)[C@H](CCCNC(=N)N)NC(=O)[C@H](CO)NC(=O)[C@H](CCC(=O)O)NC(=O)[C@H](CC(C)C)NC(=O)[C@H](Cc1ccc(O)cc1)NC(=O)[C@H](CCCCN)NC(=O)[C@H](CO)NC(=O)[C@H](Cc1ccc(O)cc1)NC(=O)[C@H](CC(=O)O)NC(=O)[C@H](CO)NC(=O)[C@@H](NC(=O)[C@H](Cc1ccccc1)NC(=O)[C@@H](NC(=O)CNC(=O)[C@H](CCC(N)=O)NC(=O)C(C)(C)NC(=O)[C@@H](N)Cc1c[nH]cn1)[C@@H](C)O)[C@@H](C)O)C(C)C)C(=O)N[C@@H](CCCCNC(=O)CC[C@H](NC(=O)CC[C@H](NC(=O)COCCOCCNC(=O)COCCOCCNC(=O)CC[C@H](NC(=O)CCCCCCCCCCCCCCCCC(=O)O)C(=O)O)C(=O)O)C(=O)O)C(=O)N[C@H](C(N)=O)[C@@H](C)O
notes: also called Chem. 34; Chem 34

Legend:
human GLP-1 receptor [1] = target: T1, human GLP-1 receptor (human, UniProt P43220 24-463); test: cell-based or functional assay
human glucagon receptor [2] = target: T2, human glucagon receptor (human, UniProt P47871 26-477); test: cell-based or functional assay
T2 sequence (P47871 26-477): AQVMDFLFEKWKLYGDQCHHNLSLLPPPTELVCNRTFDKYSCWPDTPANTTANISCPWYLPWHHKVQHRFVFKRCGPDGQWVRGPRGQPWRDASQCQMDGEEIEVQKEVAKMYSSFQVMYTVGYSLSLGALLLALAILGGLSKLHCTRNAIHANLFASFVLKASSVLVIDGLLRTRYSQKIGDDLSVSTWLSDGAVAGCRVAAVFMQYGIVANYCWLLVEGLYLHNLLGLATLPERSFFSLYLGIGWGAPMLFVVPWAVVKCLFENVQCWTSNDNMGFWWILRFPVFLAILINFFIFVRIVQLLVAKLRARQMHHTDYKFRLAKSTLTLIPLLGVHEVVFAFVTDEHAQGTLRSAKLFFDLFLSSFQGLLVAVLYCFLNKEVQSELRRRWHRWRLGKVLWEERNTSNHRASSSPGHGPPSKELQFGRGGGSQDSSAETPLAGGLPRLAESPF

human GLP-1 receptor [3] = target: T1, human GLP-1 receptor; test: displacement of [125I]-GLP-1-(7-36)NH2 from BHK membranes with human GLP-1R, SPA, no serum albumin
human glucagon receptor [4] = target: T2, human glucagon receptor; test: displacement of [125I]-glucagon from BHK membranes with human glucagon receptor, SPA, no serum albumin

Binder	GLP-1R EC50 (pM) [Assay (I)(a)], CRE luciferase reporter, BHK cells (human GLP-1 receptor [1])	GlucagonR EC50 (pM), [Assay (I)(b)], CRE luciferase reporter, BHK cells (human glucagon receptor [2])	IC50 (human GLP-1 receptor [3])	IC50 (human glucagon receptor [4])
B1	2 pM	12 pM	0.3 nM	2.7 nM
B2	4 pM	22 pM	1.5 nM	6.5 nM
B3	7 pM	8 pM	2.3 nM	6.9 nM
H[Ac4c]QGTFTSDLSKYLESRRAREFVQWLIK([γGlu-γGlu-AEEA-AEEA-γGlu-γGlu-C18 diacid])T-NH2 (also called Chem. 13; Chem 13)	4 pM	23 pM	0.1 nM	1.8 nM
B4	2 pM	7 pM	0.3 nM	0.9 nM
B5	4 pM	98 pM	1.5 nM	6.6 nM
B6	3 pM	30 pM	1.2 nM	7.1 nM
B7	1 pM	24 pM	0.1 nM	4.6 nM
B8	3 pM	66 pM	2.2 nM	7 nM
